The record followed here is patent US20240092897A1 (SHANGHAI JMT BIO TECHNOLOGY, published 2024).

Assay [1] has as its target T1, Human Siglec-15 overexpressed on HEK293T cells (HEK293T-hu-S15) (human, UniProt Q6ZMC9 20-328).
T1 construct: whole, on cells; also called HEK293T-hu-S15 cell line
T1 sequence (looked up): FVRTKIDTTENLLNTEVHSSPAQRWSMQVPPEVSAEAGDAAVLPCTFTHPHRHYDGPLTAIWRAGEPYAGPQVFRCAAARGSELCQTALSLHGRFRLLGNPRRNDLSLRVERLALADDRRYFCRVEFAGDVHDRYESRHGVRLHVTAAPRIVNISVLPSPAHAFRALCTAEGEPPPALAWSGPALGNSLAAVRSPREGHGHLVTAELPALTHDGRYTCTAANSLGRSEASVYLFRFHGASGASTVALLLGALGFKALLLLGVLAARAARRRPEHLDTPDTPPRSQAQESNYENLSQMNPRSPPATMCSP
Briefly: flow cytometry on HEK293T-hu-S15 cells, detection with anti-human IgG (Fc specific)-FITC, average fluorescence intensity. As to the method:
HEK293T cell line overexpressing Siglec-15 (HEK293T-hu-S15) was purchased from KYinno Biotechnology Co., Ltd (Beijing, China) under Catalog #KC-1314. Purified anti-Siglec-15 chimeric antibodies were diluted at a gradient of 100 nM and incubated with HEK293T-hu-S15 cells at 4° C. for 30 min. Flow cytometry was performed after addition of anti-human IgG (Fc specific)-FITC (cat. #F9512) and incubation for 30 min.
(A flow cytometer gives signals particle by particle.)

Assay [2] concerns the target T2, Human Siglec-15, His Tag (human Siglec-15 full-length extracellular domain linked with His tag) (human, UniProt Q6ZMC9 20-263).
T2 construct: Bought from ACROBiosystems; also called Siglec-15 protein; SG5-H52H3
T2 sequence: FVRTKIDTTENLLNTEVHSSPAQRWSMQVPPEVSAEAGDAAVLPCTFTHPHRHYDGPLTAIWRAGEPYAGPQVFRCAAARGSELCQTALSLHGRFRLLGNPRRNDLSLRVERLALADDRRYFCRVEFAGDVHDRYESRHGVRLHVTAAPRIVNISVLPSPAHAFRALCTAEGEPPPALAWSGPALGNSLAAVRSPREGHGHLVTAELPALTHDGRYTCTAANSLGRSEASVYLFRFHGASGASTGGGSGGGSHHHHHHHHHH
Briefly: Octet BLI epitope binning, Siglec-15 His on HIS1K sensor; competitor 174C11C9. The procedure:
(§1) Epitope binning assays were performed using the Octet RED96e (ForteBio) System for the antibodies tested. Human Siglec-15, His Tag (Cat. No. SG5-H52H3) (5 μg/mL) was captured by the HIS1K biosensor and bound to primary antibody (100 nM) for 180 s. Then, the Human Siglec-15, His Tag (antigen)-primary antibody was bound to secondary antibody (100 nM) on the biosensors for 90 s. Data analysis was performed using Octet RED96e (ForteBio) analysis software.
In general terms: Biolayer interferometry detects binding as a change in optical thickness at a sensor tip.

Assay [3] addresses T2, Human Siglec-15, His Tag (human …). Briefly: Octet BLI epitope binning, Siglec-15 His on HIS1K sensor; competitor 75E1F2. The procedure:
as §1

Assay [4] deals with T3, Cynomolgus Monkey Siglec-15 full-length extracellular domain linked with His tag (Cynomolgus Monkey).
T3 construct: Bought from ACROBiosystems; also called SG5-052H6
T3 chain: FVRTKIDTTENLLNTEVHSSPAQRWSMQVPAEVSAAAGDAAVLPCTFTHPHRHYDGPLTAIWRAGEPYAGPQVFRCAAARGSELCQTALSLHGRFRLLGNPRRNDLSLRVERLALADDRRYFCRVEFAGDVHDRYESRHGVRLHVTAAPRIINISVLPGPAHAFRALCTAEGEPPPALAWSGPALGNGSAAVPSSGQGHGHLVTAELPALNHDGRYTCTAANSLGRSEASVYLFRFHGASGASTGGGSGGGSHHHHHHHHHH
Briefly: ELISA, coated antigen. As to the method: (§2) The variable regions from the antibodies produced by the hybridomas were combined with human IgG1 (N297A) constant regions to generate chimeric antibodies, named as 21F6C6, 75E1F2, 124B11F6, 174C11C9, and 255C12B10, respectively. Binding activity assays were performed on the chimeric antibodies using Siglec-15 proteins from different species, in which human, mouse and Cynomolgus Monkey Siglec-15 proteins were purchased from ACROBiosystems (Beijing, China). Antigen was coated at 0.5 μg/ml, and antibodies were diluted starting from 1 μg/ml and incubated with antigen. Horseradish peroxidase-labeled Anti-Human IgG antibody was used as the secondary antibody and OD₄₅₀ values were read after adding the substrate.
Background: An ELISA detects its analyte on a solid surface through an enzyme-linked reagent.

The target of assay [5] is T4, Mouse Siglec-15 full-length extracellular domain linked with His tag (mouse).
T4 construct: Bought from ACROBiosystems; also called SG5-M52H7
T4 chain: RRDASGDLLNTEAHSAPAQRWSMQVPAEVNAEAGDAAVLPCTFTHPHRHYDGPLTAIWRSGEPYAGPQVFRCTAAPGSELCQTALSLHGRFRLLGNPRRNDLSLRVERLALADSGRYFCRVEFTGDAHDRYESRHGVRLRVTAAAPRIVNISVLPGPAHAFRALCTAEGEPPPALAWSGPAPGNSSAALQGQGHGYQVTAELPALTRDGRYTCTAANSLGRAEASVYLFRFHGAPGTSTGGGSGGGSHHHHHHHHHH
Briefly: ELISA, coated antigen. The procedure:
as §2

The target of assay [6] is T2, Human Siglec-15, His Tag (human …). Briefly: ELISA, coated antigen. The procedure:
as §2

For assay [7] the target is unchanged. Briefly: Octet BLI epitope binning, Siglec-15 His on HIS1K sensor; competitor 124B11F6. The procedure:
as §1

The target is the same in assay [8]. Briefly: Octet BLI epitope binning, Siglec-15 His on HIS1K sensor; competitor 21F6C6. As to the method: as §1
Assay [9] shares this target. Briefly: SPR Biacore 8K, antibody captured by anti-human Fc, Siglec-15 His as analyte. The procedure:
Affinity analysis was performed using Biacore8K, and a CM5 chip immobilized with anti-human Fc antibody was used to capture the antibodies tested. The stock solutions of the antibodies to be tested were diluted to 5 μg/mL, and injected sequentially into the experimental channels at a flow rate of 10 μL/min at about 500 RU. The analyte was Human Siglec-15, His Tag (Cat. #SG5-H52H3), the diluted human Siglec-15 protein was injected sequentially into the experimental channels and the control channel at a flow rate of 30 μL/min and allowing for a binding time of 150 s and a dissociation time of 700 s. The KD value of each antibody was calculated using Biacore 8K analysis software.

For assay [10] the target is unchanged. Briefly: Octet BLI epitope binning, Siglec-15 His on HIS1K sensor; competitor 255C12B10. As to the method:
as §1

Assay [11] has the same target. Briefly: SPR Biacore, antibody captured by anti-human Fc on CM5, Siglec-15 protein as analyte.

B1: 255C12B10 chimeric antibody (antibody, V domains shown)
VH: EVQLQQSGPELVKPGASVKMSCKASGYTFTGYNMNWVKQSHGKSLEWIGYINPNNGGTRYNQKFKGKATLTINKSSSTAYMELRSLTSEDSAVYYCARDYGIDYWGQGTTLTVSS
VL: EIQMTQSPSSMSASLGDRITITCQATQDIVKNLNWYQQKPGKPPSFLIYYATELAEGVPSRFSGSGSGSDYSLTISNLESEDFADYYCLQFYEFPYTFGGGTKLEIK
notes: Mouse variable regions combined with human IgG1 (N297A) constant regions
One may read the EC50 as the concentration needed to bring the measured effect to its halfway point. A word on the Kd: it is the equilibrium constant for the complex coming apart. A word on the koff: it is the first-order rate constant of dissociation. Usually kon stands for the second-order rate constant of association. As for B1, the EC50 in [1] worked out at 3780 pM; in assay [4] it was 5.46 ng/mL; in assay [5] it was 22.8 ng/mL; in assay [6] it was 5.62 ng/mL. The cross-competition score is 18.3% in assay [2], 11.4% in assay [3], 18.9% in assay [7] and 20.4% in [8]. The Kd in assay [9] worked out at 536 pM. The molecule further gave a koff in [9] of 0.000158 s⁻¹. In [9], this molecule returned a kon of 296000 M⁻¹ s⁻¹.

B2: 124B11F6 chimeric antibody (antibody, human IgG1, V domains shown)
VH: EVQLQQSGAELVRPGASVKLSCTASVFNIKDYYMHWVKQRTEQGLEWIGRIDPEDDKTKYAPKFQGKATITADTSSNTAYLHLSTLTSEDTAVYYCVRGWLGYIMDFWGQGTSVTVSS
VL: QLVLTQSSSASFSLGASAKLTCTLSSQHSTYTIDWYQQQPLKPPKYVMELKEDGSHSTGDGIPDRFSGSSSGADRYLGISNIQPEDEAVYICGVGATIKEQFVYVFGGGTKVTVL
notes: also called 124B11F6-mHL
Regarding B2, the EC50 was determined as 9440 pM in [1], 16 ng/mL in [4], 21.2 ng/mL in assay [5] and 21.6 ng/mL in assay [6]. Further, the cross-competition score is 79.5% in [2], 44.9% in [10], 22.7% in assay [3] and 108% in [8]. Besides, the figures for the equilibrium dissociation constant (Kd) in [11] and in [9] were 83.4 pM and 1.43 pM, respectively. Besides, the figures for the koff in assay [11] and in assay [9] were 0.000114 s⁻¹ and 1.46e-07 s⁻¹, respectively. Moreover, the kon was determined as 1.37e+06 M⁻¹ s⁻¹ in [11] and 102000 M⁻¹ s⁻¹ in assay [9].

B3: 174C11C9 chimeric antibody (antibody, human IgG1, V domains shown)
VH: EVQLQQSGPVLVKPGASVKMSCEASGYIFTDYYMNWVKQSPGKSLEWIGVFNPYSGGISYNQKFKGKATLTVDTSSSTAYMELNSLTSEDSAVYYCARDYYYLSSHGFYALDYWGQGTSVTVSS
VL: DIVLTQSPASLAVSLGQRATISCRASESVDSYGNSFIHWYQQRPGRPPKLLMYRASNLESGIPARFSGSGSRTDFTLTIDPVEADDVATYYCQQSNEDPLTFGAGTKLELK
notes: also called 174C11C9-mHL
As for B3, the EC50 in assay [1] was 1590 pM; in [4], 7.48 ng/mL; in assay [5] it was 9.85 ng/mL; in assay [6] it was 5.22 ng/mL. Further, the cross-competition score in [10] was 52.4%; in [3] it was 4.2%; in [7] it was 73.4%; in assay [8] it was 7.68%. In addition, the Kd in assay [11] came to 175 pM; in assay [9], 305 pM. Moreover, the koff was 0.000305 s⁻¹ in [11] and 0.00037 s⁻¹ in assay [9]. The kon is 1.74e+06 M⁻¹ s⁻¹ in [11] and 1.21e+06 M⁻¹ s⁻¹ in assay [9].
